Results on six molecules are retold here after patent US6348572B1, “Ligands for phosphatase binding assay” (Merck Frosst Canada & Co., priority 1996, dated 2002).

Square brackets hold non-standard residues; d marks the D form. Ends that are not written are not given here. Peptide text beside a SMILES is read from it. * marks the point of attachment. F2Pmp = N[C@@H](Cc1ccc(C(F)(F)P(=O)(O)O)cc1)C(=O)O; Bz = O=C(c1ccccc1)*

Test [1] concerns the target T1, GST-PTP1B Non-Mutated (Cys215) (Homo sapiens, UniProt P18031).
T1 construct: made in house; host or cells: E. coli
T1 sequence (P18031 1-320): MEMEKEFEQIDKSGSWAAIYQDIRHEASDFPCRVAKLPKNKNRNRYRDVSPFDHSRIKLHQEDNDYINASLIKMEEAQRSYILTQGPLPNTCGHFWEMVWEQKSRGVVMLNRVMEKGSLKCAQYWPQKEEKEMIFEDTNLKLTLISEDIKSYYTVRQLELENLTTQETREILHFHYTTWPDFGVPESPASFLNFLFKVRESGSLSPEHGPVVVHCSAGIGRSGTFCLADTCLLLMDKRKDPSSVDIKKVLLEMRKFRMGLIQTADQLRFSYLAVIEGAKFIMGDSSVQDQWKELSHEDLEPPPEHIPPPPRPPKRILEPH
As to the kind of experiment: GST-PTP1B SPA binding assay, non-mutated (Cys215) enzyme; competition with tritiated BzN-EJJ-CONH2. The following applies: for IC50: non-mutated (Cys215) GST-PTP1B. The procedure:
(§1) Enzyme: Human recombinant PTPLB, containing ammo acids 1-320, (Seq. ID No. 1) fused to GST enzyme (glutathione S-transferase) purified by affinity chromatography. Wild type (Seq. ID No. 1) contains active site cysteine(215), whereas mutant (Seq. ID No. 7) contains active site serine(215).
(§2) Tritiated peptide: Bz-NEJJ-CONH2, Mwt. 808, empirical formula, C32H32T2O12P2F4
(§3) To each well is added the following solutions @ 25° C. in the following chronological order:
(§4) 1. 110 μl of assay buffer.
(§5) 2. 10 μl. of 50 nM tritiated BzN-EJJ-CONH2 in assay buffer (1X) @ 25° C.
(§6) 3. 10 μl. of testing compound in DMSO at 10 different concentrations in serial dilution (final DMSO, about 5% v/v) in duplicate @ 25° C.
(§7) 4. 10 μl. of 3.75 μg/ml purified human recombinant GST-PTP1B in enzyme dilution buffer.
(§8) 5. The plate is shaken for 2 minutes.
(§9) 6. 10 μl. of 0.3 μg/ml anti-glutathione S-transferase (anti-GST) rabbit IgG (Molecular Probes) diluted in antibody dilution buffer @ 25° C.
(§10) 7. The plate is shaken for 2 minutes.
(§11) 8. 50 μl. of protein A-PVT SPA beads (Amersham) @ 25° C.
(§12) 9. The plate is shaken for 5 minutes. The binding signal is quantified on a Microbeta 96-well plate counter.
(§13) 10. The non-specific signal is defined as the enzyme-ligand binding in the absence of anti-GST antibody.
11. 100% binding activity is defined as the enzyme-ligand binding in the presence of anti-GST antibody, but in the absence of the testing ligands with the non-specific binding subtracted.
12. Percentage of inhibition is calculated accordingly.
13. IC50 value is approximated from the non-linear regression fit with the 4-parameter/multiple sites equation (described in: “Robust Statistics”, New York, Wiley, by P. J. Huber (1981) and reported in nM units.

Another test has as its target T2, PTP1B (Homo sapiens, UniProt P18031).
T2 sequence (P18031 1-435): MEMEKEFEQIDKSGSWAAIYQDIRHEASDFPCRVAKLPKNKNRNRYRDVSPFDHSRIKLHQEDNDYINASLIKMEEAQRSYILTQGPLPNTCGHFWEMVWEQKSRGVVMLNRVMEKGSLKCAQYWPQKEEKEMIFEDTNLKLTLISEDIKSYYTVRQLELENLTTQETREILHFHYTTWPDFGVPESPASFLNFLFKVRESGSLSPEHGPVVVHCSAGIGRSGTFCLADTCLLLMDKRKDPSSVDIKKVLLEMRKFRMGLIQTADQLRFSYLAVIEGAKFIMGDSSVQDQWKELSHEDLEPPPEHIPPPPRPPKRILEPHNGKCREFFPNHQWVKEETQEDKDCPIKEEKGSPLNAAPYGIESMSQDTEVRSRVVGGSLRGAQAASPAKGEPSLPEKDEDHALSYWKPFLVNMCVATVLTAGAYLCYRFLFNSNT
As to the kind of experiment: inhibition of PTP1B (stated in text, method not given). Type of test: biochemical. The following applies: read-out: active inhibitor of PTP1B (potency, type not given).

Test [2] deals with T3, GST-PTP1B Mutated enzyme (Ser215) (Homo sapiens, UniProt P18031, C215S).
T3 construct: made in house; host or cells: bacteria (DH5α named for the transformation; E. coli stated for the wild-type fusion)
T3 sequence (P18031 1-320 C215S): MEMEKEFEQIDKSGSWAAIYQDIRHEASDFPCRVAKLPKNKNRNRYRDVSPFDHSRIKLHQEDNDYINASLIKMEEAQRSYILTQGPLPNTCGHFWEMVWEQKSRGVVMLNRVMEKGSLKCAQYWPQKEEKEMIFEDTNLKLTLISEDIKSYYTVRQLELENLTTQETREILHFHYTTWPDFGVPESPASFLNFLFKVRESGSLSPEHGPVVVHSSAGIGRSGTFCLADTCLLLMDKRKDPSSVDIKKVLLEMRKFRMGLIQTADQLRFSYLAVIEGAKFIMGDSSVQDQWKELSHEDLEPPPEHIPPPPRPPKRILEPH
The experiment in a line: GST-PTP1B SPA binding assay, mutated (Ser215) enzyme; competition with tritiated BzN-EJJ-CONH2. The procedure: as §1, §2, §3, §4, §5, §6, §7, §8, §9, §10, §11, §12, §13
11. […]
12. Percentage of inhibition is calculated accordingly. […]

For test [3], the target named is Human recombinant PTP1B, containing amino acids 1-320, Cys215Ser mutant, fused to GST enzyme (glutathione S-transferase) (human) (UniProt P18031). The experiment in a line: SPA raw counts, mutant GST-PTP1B with tritiated BzN-EJJ-CONH2, no anti-GST antibody, no cold tripeptide, first duplicate.
Test [4] has the same target. As to the kind of experiment: SPA raw counts, mutant GST-PTP1B with tritiated BzN-EJJ-CONH2, no anti-GST antibody, no cold tripeptide, second duplicate.
Test [5] shares this target. As to the kind of experiment: SPA raw counts, mutant GST-PTP1B with tritiated BzN-EJJ-CONH2, anti-GST antibody present, no cold tripeptide, second duplicate.
Test [6] shares this target. The experiment in a line: SPA raw counts, mutant GST-PTP1B with tritiated BzN-EJJ-CONH2, anti-GST antibody present, no cold tripeptide, first duplicate.
The target in test [7] is Human recombinant PTP1B, containing amino acids 1-320, fused to GST enzyme (glutathione S-transferase), wild type (active site cysteine 215) (human) (UniProt P18031). The experiment in a line: GST-PTP1B SPA binding assay, competition with tritiated BzN-EJJ-CONH2, non-mutated (Cys215) enzyme.
Test [8] has as its target Human recombinant PTP1B, containing amino acids 1-320, Cys215Ser mutant, fused to GST enzyme (glutathione S-transferase) (human) (UniProt P18031). As to the kind of experiment: GST-PTP1B SPA binding assay, competition with tritiated BzN-EJJ-CONH2, mutated (Ser215) enzyme.
Test [9] has the same target. The experiment in a line: SPA raw counts of bound tritiated BzN-EJJ-CONH2 on mutant GST-PTP1B with cold tripeptide, second duplicate; number split over r12 and r13.
Test [10] has the same target. The experiment in a line: SPA raw counts of bound tritiated BzN-EJJ-CONH2 on mutant GST-PTP1B with cold tripeptide, first duplicate; number split over r10 and r11.
Test [11] has as its target T4, Human recombinant PTP1B, containing amino acids 1-320, fused to GST enzyme (glutathione S-transferase), wild … (human, UniProt P18031 1-320).
T4 construct: ID No. 1, which is the DNA strand; GST is N-terminal (pGEX-2T); also called GST-PTP1B; GST-PTP-1B fusion protein; not shown: N-terminal glutathione S-transferase carrier and the pGEX-2T linker residues
T4 sequence: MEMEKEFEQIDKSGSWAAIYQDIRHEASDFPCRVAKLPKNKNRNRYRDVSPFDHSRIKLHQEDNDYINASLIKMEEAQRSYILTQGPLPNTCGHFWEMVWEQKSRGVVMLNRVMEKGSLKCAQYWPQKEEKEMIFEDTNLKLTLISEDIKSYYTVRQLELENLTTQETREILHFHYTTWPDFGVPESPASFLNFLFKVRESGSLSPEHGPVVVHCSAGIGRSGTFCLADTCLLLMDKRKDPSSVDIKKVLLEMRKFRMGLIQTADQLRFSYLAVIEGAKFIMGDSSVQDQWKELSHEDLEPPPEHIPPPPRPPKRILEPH
As to the kind of experiment: GST-PTP1B SPA binding assay, competition with tritiated BzN-EJJ-CONH2, non-mutated (Cys215) enzyme. Here is the method:
1. 110 μl of assay buffer. 2. 10 μl. of 50 nM tritiated BzN-EJJ-CONH_2 in assay buffer (1X) @ 25° C. 3. 10 μl. of testing compound in DMSO at 10 different concentrations in serial dilution (final DMSO, about 5% v/v) in duplicate @ 25° C. 4. 10 μl. of 3.75 μg/ml purified human recombinant GST-PTP1B in enzyme dilution buffer. 5. The plate is shaken for 2 minutes. 6. 10 μl. of 0.3 μg/ml anti-glutathione S-transferase (anti-GST) rabbit IgG (Molecular Probes) diluted in antibody dilution buffer @ 25° C. 7. The plate is shaken for 2 minutes. 8. 50 μl. of protein A-PVT SPA beads (Amersham) @ 25° C. 9. The plate is shaken for 5 minutes. The binding signal is quantified on a Microbeta 96-well plate counter. 10. The non-specific signal is defined as the enzyme-ligand binding in the absence of anti-GST antibody. 11. 100% binding activity is defined as the enzyme-ligand binding in the presence of anti-GST antibody, but in the absence of the testing ligands with the non-specific binding subtracted. 12. Percentage of inhibition is calculated accordingly.

Test [12] deals with T5, Human recombinant PTP1B, containing amino acids 1-320, Cys215Ser mutant, fused to GST enzyme (glutathione … (human, UniProt P18031 1-320)).
T5 construct: ID No. 7 (cDNA); the protein in the assay has Ser at 215; also called GST-PTP-1B Cys215Ser mutant; mutant GST-PTP1B; not shown: N-terminal glutathione S-transferase carrier and the pGEX-2T linker residues
T5 sequence: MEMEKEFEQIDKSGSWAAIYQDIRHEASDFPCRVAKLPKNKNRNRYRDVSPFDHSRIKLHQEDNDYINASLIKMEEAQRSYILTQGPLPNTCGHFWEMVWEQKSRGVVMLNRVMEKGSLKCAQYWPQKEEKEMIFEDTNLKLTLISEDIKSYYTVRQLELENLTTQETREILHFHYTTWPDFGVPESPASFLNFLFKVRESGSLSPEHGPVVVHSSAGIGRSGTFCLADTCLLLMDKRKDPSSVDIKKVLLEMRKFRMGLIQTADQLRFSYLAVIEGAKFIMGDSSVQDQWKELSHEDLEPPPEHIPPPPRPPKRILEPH
As to the kind of experiment: GST-PTP1B SPA binding assay, competition with tritiated BzN-EJJ-CONH2, mutated (Ser215) enzyme.

As to `NC(=O)[C@H](Cc1ccc(C(F)(F)P(=O)(O)O)cc1)NC(=O)[C@H](Cc1ccc(C(F)(F)P(=O)(O)O)cc1)NC(=O)[C@H](CCC(=O)O)NC(=O)c1ccccc1` [Example 1, N-Benzoyl-L-glutamyl-[4-phosphono(difluoromethyl)]-L-phenylalanyl-[4-phosphono(difluoromethyl)]-L-phenlalanine Amide] (Bz-Glu-[F2Pmp]-[F2Pmp]-NH2), the IC50 in [1] amounted to 14 nM; on PTP1B it was 5 nM.

Regarding `COc1cc(OC)c(OC)cc1CC/N=C\Cc1ncc[nH]1` [Imine, reference compound], the inhibition at 2 µM turned out to be 67% in [1] (at 2 μM, non-mutated (Cys215)) and 10% in test [2] (at 2 μM, mutated (Ser215)).

For `Cc1cc(Cl)c2c(c1O)C(=O)C=CC2=O` [Quinone, reference compound], the results for the IC50 in test [1] and in test [2] (mutated (Ser215) GST-PTP1B) were 4000 nM and above 100000 nM, respectively.

As to “N-(3,5-Ditritio)benzoyl-L-glutamyl-[4-phosphono(difluoromethyl)]-L-phenylalanyl-[4-phosphono(difluoromethyl)]-L-phenylalanineamide (peptide)”, the results for the Counts (dpm), no antibody (- control), non-specific signal in test [3] and in [4] were 252 dpm and 304 dpm, respectively. Also, the Counts (dpm), antibody (+ control), no competitor turned out to be 6380 dpm in test [5] and 5650 dpm in [6].

For “N-Benzoyl-L-glutamyl-[4-phosphono(difluoromethyl)]-L-phenylalanyl-[4-phosphono(difluoromethyl)]-L-phenylalanineamide (peptide)”, the IC50 in test [7] worked out at 14 nM. For the same molecule, the IC50 in test [8] turned out to be 8 nM. Besides, in test [9], the Counts (dpm) at 62.5 nM tripeptide is 1110 dpm, the Counts (dpm) at 125 nM tripeptide was 588 dpm and the Counts (dpm) at 250 nM tripeptide is 273 dpm. Moreover, in test [10], the Counts (dpm) at 125 nM tripeptide amounted to 873 dpm and the Counts (dpm) at 250 nM tripeptide was 288 dpm.

B1: DADE(F2PMP)L hexapeptide (T. Burke et al. Biochem. Biophys. Res. Comm. 204, 129, (1994)) (peptide)
peptide: DADE[F2Pmp]L
notes: Terminal caps, if any, stand only in a structure drawing that is not in the text; also called hexamer peptide containing the phosphotyrosyl mimetic F2Pmp
On to B1, for which the results for the IC50 in test [11] and in [12] were 400 nM and 100 nM, respectively.
